Experimental data published in PMC9436816.
One block for each substance: values may come before it.

Key:
[1] = colorimetric PK activity of immunoprecipitated PKM2 after EGF; details: glycan lost; control: Flag-PKM2 WT, EGF-treated
[2] = glutaraldehyde crosslinking, WB; tetramer fraction after EGF; details: glycan lost; control: Flag-PKM2 WT, EGF-treated
[3] = target: pyruvate kinase M2 (PKM2), endogenous (human (endogenous in A549)) (UniProt P14618); assay: cross-linking; whole cell lysates (4 mg/ml) cross-linked with 0.025% glutaraldehyde for 3 min at 37 °C, stopped with Tris-HCl pH 8.0, WB; cells with or without EGF (100 ng/ml, 1 h), with or without transfected OGT variants
[4] = target: Flag-tagged PKM2^WT (pyruvate kinase M2) (human) (UniProt P14618); assay: as above

Substance: Pyruvate kinase M2 (PKM2): T405A/S406A
enzymatic_activity [1]: increases
oligomerisation [2]: increases

stoichiometry N [3]: 2
Substance: pyruvate kinase M2 (PKM2), endogenous, P14618 1-531 (enzyme; other documents disagree on this pair)

stoichiometry N [4]: 2
Substance: Flag-tagged PKM2^WT (pyruvate kinase M2), P14618 1-531 (enzyme; other documents disagree on this pair)
